Test results reported in patent US20150093383A1 (ONO PHARMACEUTICAL, published 2015).
Square brackets hold non-standard residues; d marks the D form. Ends that are not written are not given here. * marks the point of attachment. Biotin = O=C1N[C@H]2[C@H](CS[C@H]2CCCCC(=O)*)N1; pY = N[C@@H](Cc1ccc(OP(=O)(O)O)cc1)C(=O)O

Legend:
[1] = molecular target: T1, SHP-1 (mouse (endogenous in mouse B cell …, UniProt P29351 1-595)); assay: pull-down of A20IIA1.6 lysate with biotinylated phosphopeptide, Western blotting
T1 construct: Detected by Western blotting with a Santacruz primary antibody; also called phosphatase
T1 sequence (P29351 whole entry): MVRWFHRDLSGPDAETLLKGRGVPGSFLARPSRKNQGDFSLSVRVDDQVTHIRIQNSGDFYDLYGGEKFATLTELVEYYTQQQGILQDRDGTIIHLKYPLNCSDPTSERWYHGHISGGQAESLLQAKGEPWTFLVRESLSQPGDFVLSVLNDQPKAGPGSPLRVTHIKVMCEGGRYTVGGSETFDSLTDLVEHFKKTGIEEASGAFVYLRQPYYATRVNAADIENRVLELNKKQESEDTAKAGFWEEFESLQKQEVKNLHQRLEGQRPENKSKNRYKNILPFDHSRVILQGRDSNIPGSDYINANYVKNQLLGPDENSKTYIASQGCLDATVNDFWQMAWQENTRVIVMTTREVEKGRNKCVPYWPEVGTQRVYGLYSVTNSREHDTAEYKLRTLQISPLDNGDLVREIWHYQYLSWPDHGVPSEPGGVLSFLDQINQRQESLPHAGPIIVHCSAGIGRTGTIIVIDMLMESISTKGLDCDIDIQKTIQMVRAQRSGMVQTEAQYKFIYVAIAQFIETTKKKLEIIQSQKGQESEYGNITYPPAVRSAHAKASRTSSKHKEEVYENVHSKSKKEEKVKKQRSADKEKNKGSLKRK
Description: (§1) The ITIM domain which is a sequence important for BIR1 in transmitting inhibitory signal and the binding phosphatase were identified. Peptides (Y3: Biotin-HSQELQ³¹³YATPVF (SEQ ID NO:23), Y5: Biotin-DSYKSG³³⁶YVYSEL (SEQ ID NO:24), Y6: Biotin-YKSGYV³³⁸YSELNF (SEQ ID NO:25)) containing intracellular tyrosine of BIR1 (SEQ ID NO:1) and their corresponding phosphorylated peptides (pY3: Biotin-HSQELQ³¹³(pY)ATPVF (SEQ ID NO:26), pY5: Biotin-DSYKSG³³⁶(pY)VYSEL (SEQ ID NO:27), pY6: Biotin-YKSGYV³³⁸(pY)SELNF (SEQ ID NO:28)) were synthesized (consigned to Sigma Genosys). A peptide containing the ITIM sequence of mouse PIR-B and its phosphorylated peptide (Y3: Biotin-ESQDVT⁷⁹⁴YAQLCS (SEQ ID NO:29) and pY3: Biotin-ESQDVT⁷⁹⁴(pY)AQLCS (SEQ ID NO:30)) were synthesized as positive controls. These peptides were connected to Protein A/G PLUS-Agarose (manufactured by Santacruz) via an anti-biotin antibody (manufactured by Sigma) and then allowed to react with a lysate of A20IIA1.6 cell at 4° C. for 2 hours. After immunoprecipitation, western blotting was carried out in the usual way. The membrane was allowed to react with primary antibodies for SHP-1, SHP-2 and SHIP-1 (manufactured by Santacruz), and then allowed to react with an (HRP)-labeled secondary antibody (manufactured by Santacruz), and the bands were detected using an ECL plus Western Blotting Detection System (manufactured by Amersham Biosciences).

[2] = molecular target: T2, SHIP-1 (mouse (endogenous in mouse B cell …, UniProt Q9ES52 1-1191, limits assumed)); assay: as above
T2 construct: Detected by Western blotting with a Santacruz primary antibody; also called phosphatase
T2 sequence (looked up): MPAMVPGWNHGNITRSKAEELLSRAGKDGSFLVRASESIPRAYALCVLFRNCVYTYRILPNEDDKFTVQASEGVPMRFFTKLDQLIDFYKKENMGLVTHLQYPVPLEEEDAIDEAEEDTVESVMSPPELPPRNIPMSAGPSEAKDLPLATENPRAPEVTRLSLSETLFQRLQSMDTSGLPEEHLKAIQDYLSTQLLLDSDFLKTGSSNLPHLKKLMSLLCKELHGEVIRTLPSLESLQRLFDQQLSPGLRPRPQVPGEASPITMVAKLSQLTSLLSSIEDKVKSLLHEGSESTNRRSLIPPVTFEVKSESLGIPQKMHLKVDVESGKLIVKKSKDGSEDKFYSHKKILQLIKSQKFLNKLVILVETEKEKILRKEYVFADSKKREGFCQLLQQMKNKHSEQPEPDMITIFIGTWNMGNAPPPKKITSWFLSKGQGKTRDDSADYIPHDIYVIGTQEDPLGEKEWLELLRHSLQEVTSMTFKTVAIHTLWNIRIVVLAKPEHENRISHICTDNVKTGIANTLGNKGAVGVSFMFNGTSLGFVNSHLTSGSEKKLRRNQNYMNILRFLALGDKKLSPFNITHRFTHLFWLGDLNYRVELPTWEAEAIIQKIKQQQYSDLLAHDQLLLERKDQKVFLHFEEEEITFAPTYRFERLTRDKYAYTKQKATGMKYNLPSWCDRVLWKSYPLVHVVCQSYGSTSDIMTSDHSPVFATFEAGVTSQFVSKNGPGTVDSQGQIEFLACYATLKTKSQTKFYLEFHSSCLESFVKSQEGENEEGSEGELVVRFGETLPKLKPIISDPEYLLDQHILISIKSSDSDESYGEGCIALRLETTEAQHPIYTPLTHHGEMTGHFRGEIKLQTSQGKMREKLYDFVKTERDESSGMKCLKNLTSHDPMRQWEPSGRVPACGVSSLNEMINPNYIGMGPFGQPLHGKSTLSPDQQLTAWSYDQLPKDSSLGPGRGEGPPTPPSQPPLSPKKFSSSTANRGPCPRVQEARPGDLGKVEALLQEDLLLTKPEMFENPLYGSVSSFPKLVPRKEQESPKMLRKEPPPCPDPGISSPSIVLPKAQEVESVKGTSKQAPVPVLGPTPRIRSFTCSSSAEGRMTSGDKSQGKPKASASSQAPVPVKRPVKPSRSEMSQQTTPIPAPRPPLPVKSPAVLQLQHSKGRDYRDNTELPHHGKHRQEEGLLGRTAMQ
Description: as §1

[3] = molecular target: T3, SHP-2 (mouse (endogenous in mouse B cell …, UniProt P35235 2-593)); assay: as above
T3 construct: Detected by Western blotting with a Santacruz primary antibody; also called phosphatase
T3 sequence (looked up): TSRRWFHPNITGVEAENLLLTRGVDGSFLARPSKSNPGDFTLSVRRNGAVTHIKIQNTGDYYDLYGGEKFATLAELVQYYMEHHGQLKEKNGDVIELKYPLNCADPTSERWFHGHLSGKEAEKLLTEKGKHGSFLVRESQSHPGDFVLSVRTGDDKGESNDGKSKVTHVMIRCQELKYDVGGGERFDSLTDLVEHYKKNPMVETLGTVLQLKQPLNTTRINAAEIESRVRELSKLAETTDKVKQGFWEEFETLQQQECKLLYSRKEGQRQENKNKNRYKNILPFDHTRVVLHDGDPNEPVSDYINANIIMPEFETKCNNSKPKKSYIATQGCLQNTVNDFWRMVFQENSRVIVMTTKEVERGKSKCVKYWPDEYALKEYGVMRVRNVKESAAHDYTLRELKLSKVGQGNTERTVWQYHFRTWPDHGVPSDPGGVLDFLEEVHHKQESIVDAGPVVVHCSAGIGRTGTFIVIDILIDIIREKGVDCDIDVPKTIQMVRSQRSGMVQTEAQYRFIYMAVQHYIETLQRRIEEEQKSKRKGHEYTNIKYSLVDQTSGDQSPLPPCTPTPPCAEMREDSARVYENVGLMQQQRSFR
Description: as §1

[4] = molecular target: T1, SHP-1; assay: co-immunoprecipitation with 2.4G2 from stimulated A20IIA1.6 cells, Western blotting
Procedure: (§2) Examination was carried out on whether or not intracellular tyrosine residue is phosphorylated and a phosphatase is recruited when BIR1 is activated. With 30 μg/mL of F(ab′)₂ of rabbit anti-mouse IgG (H+L) antibody or 45 μg/mL of intact antibody thereof (manufactured by Zymed), 3×10⁷ cells of the FcR chimeric protein-stably expressing cell suspended in Ca²⁺-containing HEPES/Hanks' buffer were stimulated at 37° C. for 3 minutes. Thereafter, the cells were lysed with a lysis buffer (1% NP-40, 50 mmol/L Tris-HCl, pH 8.0, 150 mmol/L NaCl, 50 mmol/L NaF, 10% glycerol, 1 mmol/L Na₃VO₄, […], proteinnase inhibitor cocktail tablet (manufactured by Roche Diagnostics)). The cell lysate was allowed to react with Protein A/G PLUS-Agarose (manufactured by Santacruz) to which a rat anti-mouse CD16/CD32 antibody (2.4G2) (manufactured by BD Pharmingen) is bound, at 4° C. for 5 hours or more. The FcR chimeric protein and binding molecules thereof are immuno-precipitated and then Western blotting was carried out in the usual way. The membrane was allowed to react with phosphotyrosine (4G10) (manufactured by Upstate) and primary antibodies for SHP-1, SHP-2 and SHIP-1 (manufactured by Santacruz), followed by the reaction with a horse radish peroxidase (HRP)-labeled secondary antibody (manufactured by Santacruz) to detect the bands by an ECL detection system (manufactured by Amersham Biosciences).

[5] = molecular target: T2, SHIP-1; assay: as above
Procedure: as §2

[6] = molecular target: T3, SHP-2; assay: as above
Procedure: as §2

Measured: binding result

B1: pY5: Biotin-DSYKSG^336(pY)VYSEL (peptide)
peptide: Biotin-DSYKSG[pY]VYSEL
notes: Synthesised by Sigma Genosys
no binding: [1] | [2] | [3]

B2: FcR-hBIR1 (YWF) (receptor)
chain: THDLPKAVVKLEPPWIQVLKEDTVTLTCEGTHNPGNSSTQWFHNGRSIRSQVQASYTFKATVNDSGEYRCQMEQTRLSDPVDLGVISDWLLLQTPQLVFLEGETITLRCHSWRNKLLNRISFFHNEKSVRYHHYSSNFSIPKANHSHSGDYYCKGSLGRTLHQSKPVTITVQGPKSSRSLPVLTIVAAVTGIAVAAIVIILVSLVYLKKKQVPKFKTRKAMRNNVPRDRGDTAMEVGIFANILEKQAKEESVPEVGSRPCVSTAQDEAKHSQELQFATPVFQEVAPREQEACDSFKSGFVFSELNF
notes: Stably expressed in the mouse B cell strain A20IIA1.6; Immunoprecipitated from the cell lysate with 2.4G2; also called mutant in which intracellular tyrosine residue of BIR1 was replaced by phenylalanine residue
no binding: [4] | [5] | [6]
